Assay: soluble fraction after stress (log2 fold change); higher = more stays soluble; pooled small domains, quantitative proteomics
Conditions: stress: pH 4
In short: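 Custom libraries of small protein domains were pooled and exposed to pH 4. High-throughput quantitative proteomics then measured the log2 fold change in the amount of each domain still soluble, with higher values meaning more stayed soluble. This soluble-fraction fold change stands for aggregation propensity.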

Row | Sequence | soluble fraction (log2)
1 | HMFRSTLEELKHQISGFLKANQSQEFTAQNLADGLRMTSIAEYKRVVNAMDALVRDGELTFDAGKYQYNPN | 0.252
2 | HMARAVSPLEAIPGVGPRRRQQLLKQLGGMQEVARAGVEDLSRVPGISRALAQQIYDAFHGD | 0.0348
3 | HMGTVVKRNALVHAWTEFNGGRASTKLLALGPGKVGEWIELENPQSGRKLRGEVQVDGSVRLG | 0.296
4 | HMEGNLVEIFEDAFGRTMSTMDIEYINQFKRTGYDDEMIVSALREAVKSNALSFRYIERVLENWAHS | -1.83
5 | HMSEMVIPEDFLAALETNPQAKAFYATLNRQNQYAVYHRLQTAKRPETRAKRIADFVAQLAAGKRF | -0.00136
6 | HMQDKLLRKKEVLEMVSITNSTMYRMIGSGQFPRPIRLDNANINSGVRWKLSEINTFIEQRF | -0.893
7 | HMKRTRLEEAMDWLREQLNDGPVAYATLKDEAPKAEITLSTLRAAGEALRVDKQKKGVQWGGWTWSLPR | 0.404
8 | HMGDLVKGKVVGYDPDNVIVDIGAKTNALVPNREAVVEAGDDIKETLKKGNEYEFLIIRDEDEEGEFL | 0.0813
9 | HMFDTVTIGRKIAELRKAHNMTQFELADALGISFQAVSNWERGASMPDISKLPELAEIFGVTIDEVLGK | -1.06
10 | HMTDLNQIGERIKGLRDALGYSPEKMASILEQKVDDYLAYEEGTKDISLSVLQRIEKEFDIDLSTLLFGT | -1.17
11 | HMEVVVPDFEKIYIRDLDKFVEGHNVRYEIVDSIYNLEKDKGTVVDQDPEPGSKVKHGRVIYLTVNAML | -0.678
12 | HMSTTHLTASVIKDKVNVRSEADSQNGAIIDKARTGERLLVTDYGNKWTGIVLPDGKRGYIMTEYLQF | 0.22
13 | HMTIGEALLNLRKQLGLNQTEMAANVVSTSFYSKVERNIHDIGTKDLLQILNKHQINATYFFENLN | -0.446
14 | HMGKPTPASQVATRWLAGDLPETLPVAGPAPSFETLARSVSTDFHPRAVLQELLRLGVAEEADGRVRLLK | -0.0325
15 | HMPVTAQFDFSKVLAGRTLKDGEFSFVLKDKNGTVLQTKTNDASGKVAFDALIYKNNEVGEHKYTVEEVI | 0.294
16 | HMVYLPGEEIPLKIIQEGKESGQGVGYLEDGTMVVVENGRRYLNQEVLVQVTKILQTNAGRLIFAVP | 0.11
17 | HMPEPAPALPAKTRVSIRRETGGIIWHEGAWTISPPIRAYDGRWYVAVTTARKGIEFVPVSSVIRS | -0.0262
18 | HMDHAVINSEEVTIKDLSEKIGVSAAEIIKALFTEGIIKTINDKIEYEYAQYVAGMFGVELTLKL | 0.188
19 | HMNTFKNIFIQEGDLFNLKKNDNQIIFAKEGILINENKKIFRLLNGKIISTNNNRLIGFEFDKIDYNLSN | -0.0628
20 | HMLVTQSITVPMAMSGIRLDAALAMLFPDHSRNRLKAWLDDGHILVDGAVWAGKQRLEGNEEITATLPEAK | -0.189
21 | HMSAETRSWTDAQGNQTQAVLRGFDGGDVLLQNAAGKTLRVPVKNLSEDDQRYVVLNISTLID | -0.594
22 | HMEYEETMSQIKHNLNLLPRQQRVIIEMAKFDELTPAEIAKQLGISVQTVRNQLSTGLKKLRQLL | -0.373
23 | HMNMVEESVKKSSQWAVFEPNTISTWVKIQAMIENYLYQKWKEGALAGAKPEHAFFVKVGLGETM | 0.0622
24 | HMQYFDIETEIQKFIKSENNLSDFDKETLQSFLYQLSKGSPEENTAKKVVDILNKFLPLTTAIINMIKALT | -0.381
25 | HMSLEDYVIIKNKTVKVYETEFDGAPVVTSSSVGQKLILVEYNDNFAKILYRAKDGLDYVGYIKRKDVYVR | -1.04
26 | HMDTRQFWEQWVADEIRTFEHKDRKQLFGWFEGNKPKLGQMKKLGYGDLLTKVQTSWDEIYQQKE | 0.29

Row | Sequence | soluble fraction (log2)
27 | HMTNQEFNAAFKPFLDYFPTTEMTKEKINIYYLALSDLSKEQLGSAFISMVKNRVYKNFPQVAEIRQYATN | -0.456
28 | HMDEDLQEALRKLNPIQANERKLLLKMLEQHRWNVSSVAKAFDVSRNTLYRRLHKLHIPLSNPSE | 0.172
29 | HMDSINGEASISRELHGTRFDQAAAILFPEFSRSRLQAWIGAGALTLDGQTARAKDKVTQGQHLVLAAAVE | -0.536
30 | HMYLEARVKSTTPILSKPNELGKSLGKLYTNDFVALVSLHKNGLDSYYRTANGGYINAADVVIDRDV | -0.133
31 | HMKSSYSGNFKQNVVEYMHNNHLSATETANHFKLGGGSVVLRWERIYYEEGPQALYEERRGR | 0.144
32 | HMLKHSKQRDAIEQFLATRYDHPTAETVYMNLREEYPKLSLATVYRNLSLLAELGNIQKIPTGNGPDRFDG | 0.22
33 | HMGKFMVQVGAFSRINGAEITRTKYDNLGTHKAIIKNLDGMNRVFLTGFLSEDEARDFIASSNLKGAFIIR | -0.0731
34 | HMREISSDELHSLFSADQRGDLVINETTRLSIEKLYALHTPEEREAKVNELSGVLPSEAHRQLVHFLDYFD | -1.54
35 | HMVDQAFQTQLKNIQARTGKNLDELYAFIRASGLVKHGEIRDLAKRELSLGHGDANTLAKFYLESLAAAA | -0.103
36 | HMHSKQRDAIFENLRSRKDHPTAEEIYLSLKPAMPAISLATVYRNLAQLENEGLILRLGSGGSARYDGDT | 0.164
37 | HMLSVRERMSAILVSLEGERYADFTGLFDPTEGKGGVTVTFLAILELLKESMIDVVQNELYGPIHVRAA | 0.122
38 | HMGRRERKKLQSRRAIIEAAVTEFKEKGFREASVADIMTRADLGLGTFYNYFQSKEDILMSLLS | -0.0713
39 | HMKMNFNEEEQKLLSEANVLVETNKTYTDDEVKGFSNKIVEHIMTFSKTDIPKVKSKFDPILFKI | -0.745
40 | HMIERLVVSPAAGVFTKKMSVENNTRIDVGHVLGHVGETEVRSPFAGILQNYIAVDGERLTAHQPIAWLRS | 0.15
41 | HMNMAEETLDTAAKILKAAEEEFMEKGYGNAKMMSIAARAGVSHSMLHYYYRSKGKLFQMIFDEKA | -1.06
42 | HMDGLGLGAVILAQRKRQGWTQEDLAARIGVSKGAVSKWETGQSYPDLPLVPRLAALFHITVDELLDYR | 0.263
43 | HMTIHVMEIKSLLPIKILDESQHLVQSFSSKNPTSYNYRLIFSDKSKLENIKKTINENKDVESIEIRYA | -0.436
44 | HMSDESRAEIVSSAKRLFQQYGYKKTTVSDIAKAMGKVKSAIYYYFPDKESLLRAVIDEEVG | 0.132
45 | HMDQDLGFLINKYFELGKDYNTLVEIYEKIKEYIASIDKKMLEYTKNFTIEQLKKWLDDGTINNIILTLG | -0.382
46 | HMSNIQLVENLYRLRKAHHYTQQEISDLLNISRQAYSNYETSKRTPDLDSLMRLADIYGVSLDQLVNHP | -0.347
47 | HMDKEPTHLHTFRLIKEGKSSEEIAEIRNITLGTVNTHLAKLIAVGELTIEQVISKHRLDYVMEAIKNSK | -0.825
48 | HMKDDLTWSEGLMPNVVGMGLRDAMFMLENSGLRVNYSGRGKVTRQSPQPGVRIKRGATVAIELRL | 0.0273
49 | HMSLRGEKTYDEAHQKLIKSAVELFKNPLVSPEKITVSQIAKHAGVSVATAYNHFPENKLDIYGSIF | -0.0613
50 | HMTIDANAIEKMVLDLIGEHPNEWGRYRDGDKKVQGFFVGQIMKATSGQADGKIVNQILSQHAEA | 0.126
51 | HMETYPINVETTGTNVLLRTGPSTSSNIIKTITDKGTVFLSIERGINSDWQKVVTPDGTIGYMSGKY | -0.314
52 | HMSMHVHTPNPDFKPSNTNALQEGQLVEHPKFGFGKVQKIETEGLNKKASIQFEHFGEKTLLLSFAKLRII | -0.167

Row | Sequence | soluble fraction (log2)
53 | HMRGETSYANDIIKRLKQANLIVVEGTLYPLLNRLKKDGLLHYEWRESQQGPPRKYYGLTEEGEA | 0.0328
54 | HMNMAEQGISLDSEAGKARFVSQALPLLKQLPDGVFKQRMLNQLADRVEVTADFIAQQLAQLKAA | -0.266
55 | HMRENAARNRNVNLDIGETLRVDAWSPERRARVQYRGAAWDVELAPNAPATVGEFRIVEVRGNVLVVTP | -0.0451
56 | HMLPFGHTRLEDGTIQEIPEQIALARKVAEMYKAGFPVMQISIKTEGLLTPRQIYGLMNHWGVKR | -0.412
57 | HMENYQIETFVKFIEESTGEDGVAFEDLFQNFTSRPAVITMFLALLEALRRNSIRIFQKEEFSQILIYPK | -1.21
58 | HMELEIPGELIEAVRRLRDERQRMRLAGELAARQIQMHPERYTEASIDPVQTWDELRARILALA | -0.582
59 | HMPQPEIEIAAVVPYSAGALLSRIHDDGELLAPVEYRGEGVFVHARVPADIEAAMRRGGMLSPAET | -0.164
60 | HMIDEPENLIQEDKMVNIIYDLALLEGVKTFNSSNFQSVKSNDFVYKKYKIDSLQFAKSTQFYASDINR | -0.404
61 | HMLMSDEENAEFTKLYRQLVFKLHPDLNPNQTKDEENLWHKVQMAYKGGDLEEMRSLAIILDAQ | -0.547
62 | HMSQIILSARSGHAALRHRLGELGYTFADKEFDDIYERFLEVADQKKEVYDEDLESIVQERQRD | -0.559
63 | HMHKAVVGPPNARKLAVTYGFKRWPALVFFRDGKYLGAVDGLRLWADLVREADEIMHSEPHYP | 0.22
64 | HMIAITVGSKVRVKAGATFSDGTKPFTEVYNTVYDVQLLSRNGKEARIGIGEQWTGWMYISDLYPADQ | 0.00391
65 | HMRWGDPLTVKVPSFIGQTKDDIAKQHYPFRIEWHGEGAKIGSQLPEVDSVIKQDGTIHLYLV | -0.0995
66 | HMKQISNTDELETMVKKIIDDNEEQVNKYRGGNEKLFGWFVGQAMKNTGGTANPKVVNEILSKLLK | ≥ 0.43
67 | HMNQTPQISYSQFIADVRSGQIKDVNIDSDNRTIVGHKFSGEEFTTFSPGDNKLVDELLNYNVEIKTSP | -0.125
68 | HMQNNKITIYISGAVNRPGIVTIESDKRLYDAVELLGGTTKEADLNGVNLSVRLEDEQHYIIPKIGEA | -0.491
69 | HMNDRERIGKRIAQLRMEAGISQYKLAELTGLAPGNIARIETGKYSTGIDILSKIGDALGYQLDFI | -0.414
70 | HMKILVTDDNIRIDKYLTTQTEYSRSTIQKMIESNNILVNNKPTKSNYILRNNDEITIDENFNEE | -0.0512
71 | HMLAVSVDKDGKVYIQDSETAVDAVTAKLRAISGNNSEIRIFVRGDADVNYGRIMEIMGVINAAGFRKVAL | -0.78
72 | HMTPQNAAAVLRYLSSGAIKGVGPSTAQRIVEKFGAESLDIIQNKPEELATIRGISLSKALAVSEEYNKQY | 0.0689
73 | HMQVDENNINKRIDKYLSENTEYSRSTIQKMIDNGNITVNSKPTKSSYKLELNDIITIDNNFKE | -0.0731
74 | HMTRHSSVDFAGYILRNKENEPIFGFGKHKGKTVVEVLQREQGYFGWLMEADFPLYTKKVLTAIRLNTLNS | 0.316
75 | HMGKAMIDWEREQSILRILLRQKALTTEQAREVYQDGMREDLSALEMGVQRGYFTHEQLREATGGE | 0.00817
76 | HMQPDFLDAKASLALLGVRPQTLYAYVSRGAIRSVPQPGTKAHLYSRSDIERVMARAAARAG | -0.019
